# Results reported in the nanobody polyreactivity screen of Harvey et al. (2022).
# Assay: yeast display, Sf9 membrane polyspecificity reagent, FACS + sequencing; frameworks hold sequencing errors
# Summary of the method: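 Galactose induction of a Saccharomyces cerevisiae BJ5465 synthetic nanobody display library ran 36–48 hours. The cells were then stained for 1 hour at 4 °C with 10% biotinylated, detergent-solubilized Sf9 membrane reagent, pulled down on streptavidin microbeads and FACS-sorted into low and high (top ~1%) gates on expression and reagent-binding fluorescence. Labels for polyreactivity follow the gate of origin.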
row,Sequence,polyreactivity (PSR sort gate)
1,QVQLVESGGGLVQAGGSLRLSCAASGRIFSVYGMGWYRQAPGKERELVAAMSSSAGSTNYADSVKGRFTISRDNAKNTVYLQMISLKPEDTAVYYCAAYYRRVVYYPTAYYIRKYDYWGQGSQVTVSS,high polyreactivity
2,QVQLVESGGGLVQAGGSLRLSCAASGFTFGANVMGWYRPAPGKERELVAGITWSGDSTYYADSVKGRFTISRDNAKNTVYLQMNSLKPEDTAVYYCAADVYDGEYILDYDYWGQGTQVTVSS,low polyreactivity
3,QVQLVESGGGLVQAGGSLRLSCAASGRIFRWNAMGWYRQAPGKERELVASITGGDITNYADSVKGRFTISRDNAKNTVYLQMNSLKPEDTAVYYCAARGYGRGRPVASYGYDYWGQGTQVTVSS,low polyreactivity
4,QVQLVESGGGLVQAGGILRLSCAASGRIFVLNPMGWSRQAPGKERELVAASSGSGSRTYYADSVKGRFTISRDNAKNTVYLQMNSLKPEDTEVYYCNTVSRRSEHTYDYWGQGTQVTVSS,high polyreactivity
5,QVQLVESGGGLVQAVGSLRLSCAASGFTIIDNAMGWYRQARGKERELVAAISISGGRTYYADSVKGRFTISRDNAKNTVYLQMNSLKPEDTAVYYCAAGKHRRDDYCGQGTQVTVSS,high polyreactivity
6,QVHLVESGGGLVQAGGSLRLSCAASGNSLRVYAMGWYRQAPGKERELVAAISYSSVNTYYADSVKGRFTISRDNAKNTVYLQMNSLKPEETAVYYCAADYFYYRRTQYDLRGYPYYYWGQGTQVTVSS,low polyreactivity
7,QVQLVESGGGLVQAGGSLRLSCSASGRTLTRYTMGWYRKAPGKERELVAGITRSGGSTYYADSVNGRFTISRDNAKNTVYLKMNSLKPEDTAVYYCAVKQRDKFAGGRNDYWGQGTQVTVSS,high polyreactivity
8,QVQLVESGGGVVQAGGSLRLSCAASGSIFQSYAMGWYRQAPGKERELVAAISYSGDGPFYADSVKGRFTISRDNAKKTVYLQMNSLKPEDTAVYYCAASSTGYGGSTYYYWGQGTQVTVSS,low polyreactivity
9,KVQLVESGGGLVQAGGRLRLSCAASGFIFVPYPMGWYRQAPGKERELVATITGRGDSTYYADSVKGRFTISRDNAMNTVYLQMNSLKTDDTAVYYCAVDPIRLWAYDYWGQGTQVNVSS,low polyreactivity
10,QVQLVKSGGGLVQAGGSLRLSCAASGSTFYNAMGWYRQAPGKERELVAAISIGGSTYYADSVKGRFTISRDNAKNTVYLQMNSLKPEDTAVYYCAAVWYTSRQKYDYWGHGTQVTVSS,low polyreactivity
11,QVQLVESGGGLVQAGGSLRLSCAASGTIFRGNAMGWYRQAPGTERELVAAINKSGGSTYYADSVKGRFTISRDNAKNTVYLQMNSLKPEDTAVYYCAAVYKRLQPYGYWGQGTQVTVSS,high polyreactivity
12,KVQLVESGGGLDQAGGSLRLSCAASGIIFAYNVMGRYRQAPGKERELVAAIRWGGGSTYADSVKGRFSISRDNAKNTVYLQMTRLKPEDTAVYYCNVERWWWSRTYCVKYDYWGQGTQVNVSS,high polyreactivity
13,QVQLVESGGGLVQAGGSLRLSCAASGSTFKFYAMGWYRQAPGKARELVASITSSSGPTYYADSVKGRFTISRDNAKNTVYLQMNSLKPEDPAVYYCNKDWRRYWLRGDYWGQGTQVTVSS,low polyreactivity
14,QVQLVESGGGLVQAGGSLRLSCAASGFTFQYYAMGWYRQAPGKERELVATITTSGGNTYYADSVKGRFTISRDNAKNTVYLQMNSLKPEDTAVYYCAARNARYVHTMEYWGQGTQVTVSS,high polyreactivity
15,QVQLVESGGGLVQAGASLRLSCAASGFTFGINAMGWYRQAPGKERELVATISTRGGTTHYADSVKGRFTISRDNAKNTVYLQMNRLKPEDTAVYYCAVERGTFRSGFAYEYYYWGQGTQVTVSS,low polyreactivity
16,QVHLVESGGGLVQAGGSLRLSCAASGRTFYRYAMGWYRQAPGKERELVAAINTGGSTYYADSVKGRFTISRDNAKTTVYLQMNSLKPEVTAVYYCAAEAASWWGYGYWGQGTKVTVSS,high polyreactivity

row,Sequence,polyreactivity (PSR sort gate)
1,QVQLVESGGGLVQAGGSLSLSCAASGFISASNVMGWYRHAPGKERELVAAINWSGDNTYYADSVKWRFTISRDTAKNTVYLLMNSLKAEDTAVYYCNDDVYSYATPEMDYWGQGTQVTVSS,low polyreactivity
2,QVQLVESGGGLVQAGGSLRLSCAASGFTFKSNAMGWYRQAPGKERELVAAISGSGGRTYYADSVKGRYTISRDTAKYTVYLQMNSLKPEDTAVYYCAADYPVRSYDYWGQGTQVTVSS,low polyreactivity
3,QVQLVESAGGLVQAGGSLSLSCAASGSILSRYAMGWYRQAPGKERELVAAINWSGSSTYYADSVKGRFTISRDNAKNTVYLQMNSLKPEDTAVYYCAKLYVTPRRLPYDYWGQGTQVPVSS,high polyreactivity
4,QVQLVESVGGLVHAGGSLRLSCAASGSTFRYNAMGWYRQAPGKDRELVAAISWSGGSTYYADSVKGRFTISRDNAKNTVYFQMNSLIPEDTAVYYCAKVYFWGALSPDKYDEDYWGQGTQVTVSS,low polyreactivity
5,QVQIVESGGGLVQAGGSLRLSCAASGNTFNYYTMGWYIQAPGKERELVAAIRSGGRTYYADSVKGRFTISRDNANNSVSLQMNSLKPEDTAVYFCAALAVTYRYDYWGQGTQLTVSS,high polyreactivity
6,QVQLVESGGGLVQAGGSLRLSCAASGRIFSYNAMGWYRQAPGKERELVAPINTSGGSTYYADSVKGRFTISRDNAKNTVYLHMNSLKPEDTAVYYCNATLPVYWPYYYYQGGDDDWGQGTQVTVSS,low polyreactivity
7,QVQLEESGGGLVQAGGSLRLSCAASGSTFCYYPMGWYRQAPGKEREFVAAISSSGGSTYYADYVKGRFTISRDNAKNTVYFQMNSLKPEDTAVYYCARVGFPGFYWGQGTEVTVSS,high polyreactivity
8,QVQLVESGGGLVQAGCSLRLSCAASGSTFFPNGMGWYRQAPGKERELVAAITQDGGSTYYADSVKGRFTISRDNAKNTVYLQMNSLKPEDTAVYYCAASAGPYYEYGYWGQGTQVTVSS,low polyreactivity
9,QVQLVDSGGGLVQAGGSLRLSCAASGSTFSSYAMGWYRQAPGKERELVDVITRGTSTNYADSVKGRFTISRDNAKNTVYLQMNSLKPEDTAVYYCNSRRGSRRFGYCGQGTQVTVSS,high polyreactivity
10,QVQLVESGGGLVQAGGSLRLSCAASGRTFHGYAMGWYRQAPGKERELVAAITSSGARTYYADSVKGRFTISRDNAKNTVFLQMNILKPEDSAVYYCAVNWLRGMDWGQGTQVTVSS,high polyreactivity
11,QVQLVESGGGLVQAGGSLRLSCAASGGTFSYYTMGWYRQAPGKERELVARISKNGGRTYYADSVKGRFTISRDNAKNTVYLQMNCLKPEDTAVYYCNAAGRTYDFSGGRTMEYWGQGTQVTVSS,high polyreactivity
12,QVQLVESGGGLVQAGGSLRLSCAASGSTFFRYAMGLYRQAPGKERELVAAISWSGGTTYYADSVKGRFTISRDNAQNTVYLQMYSLKPEDTAVYYCNAVRQGHILDYWGQGTQVTVSS,low polyreactivity
13,QLQLVESGGGLVQAGGSLRLSCAASGRIFEYYAMGWYRQAPGKERELVAAISWSGGSTYYADSVKGRFTISRDNAKNTVYLQMNSLTPEDTAVYYCARDLPYYSISRYDYWGLGTQVTVSS,high polyreactivity
14,QVQLVESGGGLVQAGGSLRLSCAASGFISVRNAMGWYRQAPGKERELVAAISSGDTTDYADSVKGRFTISRDNAKNTVSLQMNSLKAEDTAVYYCAAVYYGRYYYWGQGTQVTVSS,low polyreactivity
15,QVQLVESGGGLVQAGGSLRLSCAASGSIFYNYAMGWSRQAPGKERELVAAITANTGSTYYADSVKGRFTISRVNAKNTVYLQMNSLKPEDTAVYYCATTWTIRRYRYSPRLVDYWGQGTQVTVSS,low polyreactivity
16,QVQLVESGGGLVQAGGSLSLSCAASGSIFPGNAMGWYRQAPGKERELVAVIDFSGASTYYADSVKGRFTISRDNAKNTVYLQMNSLKPEDTADYWGQGTQVTVSS,low polyreactivity
